For one substance, stoichiometry N results are on record in PMC5122317.

The target in this experiment is iRFP (Rhodopseudomonas palustris). Description: SEC. (In general: SEC sorts molecules by how far they enter the pores of the column.)

As a reminder, the stoichiometry N is the number of molecules, sites or subunits per partner or assembly. iRFP yielded a stoichiometry N of 1.92 fold.
